Literature values in article PMC4856733.

Biological target: vinculin tail tail (Homo sapiens) (UniProt P18206)

vinculin head head (from UniProt P18206)
Kd: < 1 nM
